Consider 20 variants from the RNAGym collection of RNA variant scans (doi:10.7554/elife.90254).

The labels stand for the following.
B1: LINE1-full (parent)
chain: UACGUAGGUGGUUUUCCCCUGAUAGUGCUAAGGGGGCCUGGAAGUUUGGACUGGGCAGAGCUCAACACAGCGUGGCAAAGUGGCUGUGGCUAGACUGCCUCUCUGGAUUCCUCGUCACUCAGCAGGGCAUCUCUGAGAGAAAUGCC

Variants of B1 are the subject of the series. Kind of series: self-cleavage, relative activity (ratio to wild type); higher = more cleavage; in vitro, sequencing; the parent is a self-cleaving ribozyme.
As for UACGUAGGUGGUUUUCCCCUGAUAGGGCUAAGGGGGCCUGGAAGUUUGGACUGGGCAGAGCUCAACACAGCGUGGCAAAGUGGCUGUGGCUAGACUGCCUCUCUGGAUUCCUCGUCACUCAGCAGGGCAUCUCUGAGAGAAAUGCC, the self-cleavage stood at 0.99. The result for UACGUAGGUGGUUUUCCCCUGAUAGCGCUAAGGGGGCCUGGAAGUUUGGACUGGGCAGAGCUCAACACAGCGUGGCAAAGUGGCUGUGGCUAGACUGCCUCUCUGGAUUCCUCGUCACUCAGCAGGGCAUCUCCGAGAGAAAUGCC reads 0.83.

In the case of UACGUAGGUGGUUUUCCCCUGAUAGGGCUAAGGGGGCCUGGAAGUUUGGACUGGGCAGAGCUCAACACAGCGUGGCAAAGUGGCUGUGGCUAGACUGCCUCUCUGGAUUCCUCGUCACUCAGCGGGGCAUCUCUGAGAGAAAUGCC, the self-cleavage came out at 0.69.

For the variant UACGUAGGUGGUUUUCCCCUGAUAGGGCUAAGGGGGCUUGGAAGUUUGGACUGGGCAGAGCUCAACACAGCGUGGCAAAGUGGCUGUGGCUAGACUGCCUCUCUGGAUUCCUCGUCACUCAGCAGGGCAUCUCUGAGAGAAAUGCC, the self-cleavage was 0.91.

Consider UACGUAGGUGGUUUUCCCCUGAUAGCGCUAAGGGGGCCUGGAAGUUUGGACUGGGCAGAGCUCAACACAGCGUGGCAAAGUGGCUGUGGCUAGACUGCCUCUCUGGAUUCCUCGUCACUCAGCAGGGCAGCUCUGAGAGAAAUGCC, for which the self-cleavage was found to be 1.61. The result for UACGUAGGUGGUUUUCCCCUGAUAGCGCUAAGGGGGCCUGGAAGUUUGGACUGGGCAGAGCUCAACACAGCGUGGCAAAGUGGCUGUGGCUAGACUGCCUCUCUGGAUUCCUCGUCACUCAGCAGGGCAUCCCUGAGAGAAAUGCC reads 1.62; that for UACGUAGGUGGUUUUCCCCUGAUAGGGCUAAGGGGGCCUGGAAGUUUGGACUGGGCAGAGCUCAACACAGCGUGGCAAAGUGGCUGUGGCUAGACUGCCUCUCUGGAUUUCUCGUCACUCAGCAGGGCAUCUCUGAGAGAAAUGCC, 1.75.

As to UACGUAGGUGGUUUUCCCCUGAUAGCGCUAAGGGGGCCUGGAAGUUUGGACUGGGCAGAGCUCAACACAGCGUGGCAAAGUGGCUGUGGCCAGACUGCCUCUCUGGAUUCCUCGUCACUCAGCAGGGCAUCUCUGAGAGAAAUGCC, the self-cleavage was determined as 0.73.

With UACGUAGGUGGUUUUCCCCUGAUAGCGCUAAGGGGGCCUGGAAGUUUGGACUGGGCAGAGCUCAACACAGCGUGGCAAAGUGGCUGAGGCUAGACUGCCUCUCUGGAUUCCUCGUCACUCAGCAGGGCAUCUCUGAGAGAAAUGCC, the self-cleavage stood at 0.08. Consider UACGUAGGUGGUUUUCCCCUGAUAGGGCUAAGGGGGCCUGGAAGUUUGGACUGGGCAGAGCUCAACACAGCGUGGCAAAGUGGCUGUGGCUAGACUGCCUCUCUGGAUUCCUCGUCUCUCAGCAGGGCAUCUCUGAGAGAAAUGCC, for which the self-cleavage stood at 1.3. For UACGUAGGUGGUUUUCCCCUGAUAGGGCUAAGGGGGCCUGGAAGUUUGGACUGGGCAGAGCUCAACACAGCGUGGCAAGGUGGCUGUGGCUAGACUGCCUCUCUGGAUUCCUCGUCACUCAGCAGGGCAUCUCUGAGAGAAAUGCC the value was 0.53; for UACGUAGGUGGUUUUCCCCUGAUAGGGCUAAGGGGGCCUGGAAGUUUGGACUGGGCAGAGCUCAACACAGCGUGGCAAAGUGGCUGUGGCUAGACUGCCUCUCUGGAUUCCUCGUCACUCAGCAGGGCAUCUCUGAGAGAAGUGCC, 1.28; for UACGUAGGUGGUUUUCCCCUGAUAGCGCUAAGGGGGCCUGGAAGUUUGGACUGGGCAGAGCUCAACACAGCGUGGCAAAGUGGCUGUGGCUAGACUGCCUCUCUGGAUUCCUCGUCACUCAGCAGGGCAUCUCUGAGAGAAACGCC, 1.07.

Turning to UACGUAGGUGGUUUUCCCCUGAUAGCGCUAAGGGGGCCUGGAAGUUUGGACUGGGCAGAGCUCAACACAGCGUGGCAAAGUGGCUGUGGCUAGACUGCCUCUCUGGAUUCCUCGUCACUCAGCAGGGCAUCUCUGAGAGAAAAGCC, the self-cleavage was 1.44. For the variant UACGUAGGUGGUUUUCCCCUGAUAGCGCUAAGGGGGCCUGGAAGUUUGGACUGGGCAGAGCUCAACACAGCGUGGCAAAGUGGCUGUGGCUAGACUGCCUCUCUGGAUCCCUCGUCACUCAGCAGGGCAUCUCUGAGAGAAAUGCC, the self-cleavage came to 1.74. For UACGUAGGUGGUUUUCCCCUGAUAGCGCUAAGGGGGCCUGGAAGUUUGGACUGGGCAGAGCUCAACACAGCGUGGCAAAGUGGCUGUGGCUAGACUGCCUCUCUGGAUUCCCCGUCACUCAGCAGGGCAUCUCUGAGAGAAAUGCC, the self-cleavage was determined as 1.36. In the case of UACGUAGGUGGUUUUCCCCUGAUAGCGCUAAGGGGGCCUGGAAGUUUGGACUGGGCAGAGCUCAACACAGCGUGGCAAAGUGGCUGUGGCUAGACUGCCUCUCAGGAUUCCUCGUCACUCAGCAGGGCAUCUCUGAGAGAAAUGCC, the self-cleavage stood at 1.13.

Turning to UACGUAGGUGGUUUUCCCCUGAUAGCGCUAAGGGGGCCUGGAAGUUUGGACUGGGCAGAGCUCAACACAGCGUGGCAAAGUGGCUGUGGCUAGACUGCCUCUCCGGAUUCCUCGUCACUCAGCAGGGCAUCUCUGAGAGAAAUGCC, the self-cleavage was 0.84. For the variant UACGUAGGUGGUUUUCCCCUGAUAGCGCUAAGGGGGCCUGGAAGUUUGGACUGGGCAGAGCUCAACACAGCGUGGCAAAGUGGCUGUGGCUAGACUGCCUCUCUGGAUUCCUCGUCACCCAGCAGGGCAUCUCUGAGAGAAAUGCC, the self-cleavage came out at 1.77. In the case of UACGUAGGUGGUUUUCCCCUGAUAGGGCUAAGGGGGCCUGGAAGUUUGGACUGGGCAGAGCUCAACACAGCGUGGCAAAGUGGCUGUGGCUAGACUGCCUCUCUGGAUUCCUCGUCACUCAGCAGGGCAUCUCUGAGGGAAAUGCC, the self-cleavage was determined as 1.21.
